We go through 1 molecule from publication PMC4346194 (Structure (London, England : 1993), 2015).

What all share (assay): pull-down
Assay [1] addresses T1, GST-tagged FL-importin α3 (human, UniProt O00629 1-521).
T1 sequence: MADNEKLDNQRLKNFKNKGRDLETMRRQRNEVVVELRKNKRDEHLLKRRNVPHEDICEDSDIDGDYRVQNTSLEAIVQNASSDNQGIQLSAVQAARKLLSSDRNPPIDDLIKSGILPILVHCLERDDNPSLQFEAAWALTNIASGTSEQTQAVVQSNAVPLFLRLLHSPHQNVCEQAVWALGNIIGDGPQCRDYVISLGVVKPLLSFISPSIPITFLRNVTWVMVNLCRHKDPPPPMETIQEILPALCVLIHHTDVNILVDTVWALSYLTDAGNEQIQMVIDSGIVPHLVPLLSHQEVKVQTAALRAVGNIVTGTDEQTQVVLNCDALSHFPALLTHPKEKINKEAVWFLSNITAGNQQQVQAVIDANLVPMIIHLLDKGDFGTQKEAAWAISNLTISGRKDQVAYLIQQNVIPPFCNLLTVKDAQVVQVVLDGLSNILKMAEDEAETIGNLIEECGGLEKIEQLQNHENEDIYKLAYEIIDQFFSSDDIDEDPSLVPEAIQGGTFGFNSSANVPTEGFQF

Assay [2] has as its target GST-tagged FL-importin α7 (human, UniProt O60684 1-536).
For assay [3], the target named is GST-tagged FL-importin α1 (mouse, UniProt P52293 1-529).
Assay [4] addresses T2, GST-tagged FL-importin α3 (RRRR) (human, UniProt O00629 1-521, Q28R).
T2 sequence: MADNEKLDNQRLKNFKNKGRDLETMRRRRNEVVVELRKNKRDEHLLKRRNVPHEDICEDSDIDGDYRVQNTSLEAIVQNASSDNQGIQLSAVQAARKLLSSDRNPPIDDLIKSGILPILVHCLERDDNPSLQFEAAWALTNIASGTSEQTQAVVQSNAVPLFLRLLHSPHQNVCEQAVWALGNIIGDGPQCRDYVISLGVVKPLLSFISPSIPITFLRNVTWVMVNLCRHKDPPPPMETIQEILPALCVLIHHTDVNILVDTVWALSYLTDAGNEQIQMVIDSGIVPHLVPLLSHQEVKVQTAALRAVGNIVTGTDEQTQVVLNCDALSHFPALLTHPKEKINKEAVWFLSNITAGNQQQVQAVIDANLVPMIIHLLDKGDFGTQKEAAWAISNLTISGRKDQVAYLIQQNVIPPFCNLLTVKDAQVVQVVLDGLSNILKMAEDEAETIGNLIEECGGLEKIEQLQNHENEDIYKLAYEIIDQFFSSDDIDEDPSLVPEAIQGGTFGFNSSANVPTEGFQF

In the case of KRPAATKKAGQAKKKK [MBP-tagged nucleoplasmin NLS (NP-NLS, res. 155-170)], the “percent of importin α bound to cargo” value in assay [1] came to 35%; in assay [2], 46%; in assay [3] it was 25%; in assay [4] it was 27%.
